Three molecules from article PMC11718114 can be followed below.

As a reminder, the Kd is the concentration at which binding is half-saturated.

The experiment deals with PI3Kα-RBD (PIK3CA-RBD(157-289)), P42336. As to the kind of experiment: ITC. The following applies: chain shown with the change;; parent: est. 8.0 µM; read off a plot.

Positions count from the first letter of the chain named. Numbers in names are those of the source.

B1: RRAS2 (wild type), P62070 F75A (protein)
chain: MAAAGWRDGSGQEKYRLVVVGGGGVGKSALTIQFIQSYFVTDYDPTIEDSYTKQCVIDDRAARLDILDTAGQEEAGAMREQYMRTGEGFLLVFSVTDRGSFEEIYKFQRQILRVKDRDEFPMILIGNKADLDHQRQVTQEEGQQLARQLKVTYMEASAKIRMNVDQAFHELVRVIRKFQ
On to B1, for which the Kd amounted to 21 µM.

B2: RRAS2 (wild type), P62070 E74A (protein)
chain: B1 chain with E74A, A75F
Consider B2, for which the Kd amounted to 12 µM.

B3: RRAS2 (wild type), P62070 M78A (protein)
chain: B1 chain with A75F, M78A
Take B3: the Kd was 130 µM.
